Data reported in patent publication US20260167699A1 (Chugai, published 2026).

B1: GpH7-A5/GpH7-B3 variant D270_07I/GpL16-k0 (antibody, human IgG1, kappa)
heavy 1: not shown
heavy 2: not shown
light: DIVMTQSPLSLPVTPGEPASISCQASESLVHSNRNTYLHWYLQKPGQSPQLLIYKVSNRFSGVPDRFSGSGSGTDFTLKISRVEAEDVGVYYCSQNTHVPPTFGQGTKVEIERTVAAPSVFIFPPSDEQLKSGTASVVCLLNNFYPREAKVQWKVDNALQSGNSQESVTEQDSKDSTYSLSSTLTLSKADYEKHKVYACEVTHQGLSSPVTKSFNRGEC
notes: copies: 1 + 1 + 2
B2: GpH7-A5/GpH7-B3 variant D270_08L/GpL16-k0 (antibody, human IgG1, kappa)
heavy 1: not shown
heavy 2: not shown
light: B1 light
notes: copies: 1 + 1 + 2
B3: GpH7-A5/GpH7-B3 variant D270_10E/GpL16-k0 (antibody, human IgG1, kappa)
heavy 1: not shown
heavy 2: not shown
light: B1 light
notes: copies: 1 + 1 + 2
B4: GpH7-A5/GpH7-B3 variant D270_13S/GpL16-k0 (antibody, human IgG1, kappa)
heavy 1: not shown
heavy 2: not shown
light: B1 light
notes: copies: 1 + 1 + 2
B5: GpH7-A5/GpH7-B3 variant D270_14T/GpL16-k0 (antibody, human IgG1, kappa)
heavy 1: not shown
heavy 2: not shown
light: B1 light
notes: copies: 1 + 1 + 2
B6: GpH7-A5/GpH7-B3 variant D270_18N/GpL16-k0 (antibody, human IgG1, kappa)
heavy 1: not shown
heavy 2: not shown
light: B1 light
notes: copies: 1 + 1 + 2
B7: GpH7-A5/GpH7-B3 variant D270_19Q/GpL16-k0 (antibody, human IgG1, kappa)
heavy 1: not shown
heavy 2: not shown
light: B1 light
notes: copies: 1 + 1 + 2
B8: GpH7-A5/GpH7-B3 variant E269_01G/GpL16-k0 (antibody, human IgG1, kappa)
heavy 1: not shown
heavy 2: not shown
light: B1 light
notes: copies: 1 + 1 + 2
B9: GpH7-A5/GpH7-B3 variant E269_02A/GpL16-k0 (antibody, human IgG1, kappa)
heavy 1: not shown
heavy 2: not shown
light: B1 light
notes: copies: 1 + 1 + 2
B10: GpH7-A5/GpH7-B3 variant E269_03V/GpL16-k0 (antibody, human IgG1, kappa)
heavy 1: not shown
heavy 2: not shown
light: B1 light
notes: copies: 1 + 1 + 2
B11: GpH7-A5/GpH7-B3 variant E269_06M/GpL16-k0 (antibody, human IgG1, kappa)
heavy 1: not shown
heavy 2: not shown
light: B1 light
notes: copies: 1 + 1 + 2
B12: GpH7-A5/GpH7-B3 variant E269_07I/GpL16-k0 (antibody, human IgG1, kappa)
heavy 1: not shown
heavy 2: not shown
light: B1 light
notes: copies: 1 + 1 + 2
B13: GpH7-A5/GpH7-B3 variant E269_08L/GpL16-k0 (antibody, human IgG1, kappa)
heavy 1: not shown
heavy 2: not shown
light: B1 light
notes: copies: 1 + 1 + 2
B14: GpH7-A5/GpH7-B3 variant E269_09D/GpL16-k0 (antibody, human IgG1, kappa)
heavy 1: not shown
heavy 2: not shown
light: B1 light
notes: copies: 1 + 1 + 2
B15: GpH7-A5/GpH7-B3 variant E269_13S/GpL16-k0 (antibody, human IgG1, kappa)
heavy 1: not shown
heavy 2: not shown
light: B1 light
notes: copies: 1 + 1 + 2
B16: GpH7-A5/GpH7-B3 variant E269_14T/GpL16-k0 (antibody, human IgG1, kappa)
heavy 1: not shown
heavy 2: not shown
light: B1 light
notes: copies: 1 + 1 + 2
B17: GpH7-A5/GpH7-B3 variant E269_15Y/GpL16-k0 (antibody, human IgG1, kappa)
heavy 1: not shown
heavy 2: not shown
light: B1 light
notes: copies: 1 + 1 + 2
B18: GpH7-A5/GpH7-B3 variant E269_16H/GpL16-k0 (antibody, human IgG1, kappa)
heavy 1: not shown
heavy 2: not shown
light: B1 light
notes: copies: 1 + 1 + 2
B19: GpH7-A5/GpH7-B3 variant E269_18N/GpL16-k0 (antibody, human IgG1, kappa)
heavy 1: not shown
heavy 2: not shown
light: B1 light
notes: copies: 1 + 1 + 2
B20: GpH7-A5/GpH7-B3 variant E269_19Q/GpL16-k0 (antibody, human IgG1, kappa)
heavy 1: not shown
heavy 2: not shown
light: B1 light
notes: copies: 1 + 1 + 2
B21: GpH7-A5/GpH7-B3 variant E333_01G/GpL16-k0 (antibody, human IgG1, kappa)
heavy 1: not shown
heavy 2: not shown
light: B1 light
notes: copies: 1 + 1 + 2
B22: GpH7-A5/GpH7-B3 variant E333_02A/GpL16-k0 (antibody, human IgG1, kappa)
heavy 1: not shown
heavy 2: not shown
light: B1 light
notes: copies: 1 + 1 + 2
B23: GpH7-A5/GpH7-B3 variant E333_03V/GpL16-k0 (antibody, human IgG1, kappa)
heavy 1: not shown
heavy 2: not shown
light: B1 light
notes: copies: 1 + 1 + 2
B24: GpH7-A5/GpH7-B3 variant E333_04F/GpL16-k0 (antibody, human IgG1, kappa)
heavy 1: not shown
heavy 2: not shown
light: B1 light
notes: copies: 1 + 1 + 2
B25: GpH7-A5/GpH7-B3 variant E333_05P/GpL16-k0 (antibody, human IgG1, kappa)
heavy 1: not shown
heavy 2: not shown
light: B1 light
notes: copies: 1 + 1 + 2
B26: GpH7-A5/GpH7-B3 variant E333_06M/GpL16-k0 (antibody, human IgG1, kappa)
heavy 1: not shown
heavy 2: not shown
light: B1 light
notes: copies: 1 + 1 + 2
B27: GpH7-A5/GpH7-B3 variant E333_07I/GpL16-k0 (antibody, human IgG1, kappa)
heavy 1: not shown
heavy 2: not shown
light: B1 light
notes: copies: 1 + 1 + 2
B28: GpH7-A5/GpH7-B3 variant E333_08L/GpL16-k0 (antibody, human IgG1, kappa)
heavy 1: not shown
heavy 2: not shown
light: B1 light
notes: copies: 1 + 1 + 2
B29: GpH7-A5/GpH7-B3 variant E333_09D/GpL16-k0 (antibody, human IgG1, kappa)
heavy 1: not shown
heavy 2: not shown
light: B1 light
notes: copies: 1 + 1 + 2
B30: GpH7-A5/GpH7-B3 variant E333_11K/GpL16-k0 (antibody, human IgG1, kappa)
heavy 1: not shown
heavy 2: not shown
light: B1 light
notes: copies: 1 + 1 + 2
B31: GpH7-A5/GpH7-B3 variant E333_12R/GpL16-k0 (antibody, human IgG1, kappa)
heavy 1: not shown
heavy 2: not shown
light: B1 light
notes: copies: 1 + 1 + 2

biological target: T1, FcγRIIIa (human, UniProt P08637 17-208); test: SPR (Biacore);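 further: antibody variants captured on an SPR sensor chip, with FcγRIIIa passed over as analyte in HBS-EP+ buffer at 25 °C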
T1 construct: extracellular domain; also called 3a; FcγRIIIa extracellular domain
T1 sequence (P08637 other isoform, or with tags, fused parts or gaps): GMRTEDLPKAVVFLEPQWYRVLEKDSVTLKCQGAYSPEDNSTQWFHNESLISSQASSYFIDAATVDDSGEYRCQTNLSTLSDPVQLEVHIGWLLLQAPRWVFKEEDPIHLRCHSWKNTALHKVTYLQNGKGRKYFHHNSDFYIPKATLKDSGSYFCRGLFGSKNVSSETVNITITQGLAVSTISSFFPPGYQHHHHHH

Binder	He/Con 3a
B1	63.1 % of GpH7-A5/GpH7-B3/GpL16-k0
B2	65.1 % of GpH7-A5/GpH7-B3/GpL16-k0
B3	112 % of GpH7-A5/GpH7-B3/GpL16-k0
B4	51.4 % of GpH7-A5/GpH7-B3/GpL16-k0
B5	55.4 % of GpH7-A5/GpH7-B3/GpL16-k0
B6	51.2 % of GpH7-A5/GpH7-B3/GpL16-k0
B7	74.2 % of GpH7-A5/GpH7-B3/GpL16-k0
B8	61.6 % of GpH7-A5/GpH7-B3/GpL16-k0
B9	68 % of GpH7-A5/GpH7-B3/GpL16-k0
B10	56 % of GpH7-A5/GpH7-B3/GpL16-k0
B11	57.9 % of GpH7-A5/GpH7-B3/GpL16-k0
B12	55.3 % of GpH7-A5/GpH7-B3/GpL16-k0
B13	51.5 % of GpH7-A5/GpH7-B3/GpL16-k0
B14	106 % of GpH7-A5/GpH7-B3/GpL16-k0
B15	62.1 % of GpH7-A5/GpH7-B3/GpL16-k0
B16	59.7 % of GpH7-A5/GpH7-B3/GpL16-k0

Binder	He/Con 3a
B17	51.5 % of GpH7-A5/GpH7-B3/GpL16-k0
B18	50.7 % of GpH7-A5/GpH7-B3/GpL16-k0
B19	57.2 % of GpH7-A5/GpH7-B3/GpL16-k0
B20	64.3 % of GpH7-A5/GpH7-B3/GpL16-k0
B21	101 % of GpH7-A5/GpH7-B3/GpL16-k0
B22	108 % of GpH7-A5/GpH7-B3/GpL16-k0
B23	106 % of GpH7-A5/GpH7-B3/GpL16-k0
B24	104 % of GpH7-A5/GpH7-B3/GpL16-k0
B25	100 % of GpH7-A5/GpH7-B3/GpL16-k0
B26	100 % of GpH7-A5/GpH7-B3/GpL16-k0
B27	100 % of GpH7-A5/GpH7-B3/GpL16-k0
B28	102 % of GpH7-A5/GpH7-B3/GpL16-k0
B29	115 % of GpH7-A5/GpH7-B3/GpL16-k0
B30	97.7 % of GpH7-A5/GpH7-B3/GpL16-k0
B31	92.2 % of GpH7-A5/GpH7-B3/GpL16-k0
